# In patent US20210087281A1 (AGOMAB THERAPEUTICS, published 2021):
# B1: 71D6 chimeric llama-human IgG1 mAb (antibody, V domains shown)
# VH: ELQLVESGGGLVQPGGSLRLSCAASGFTFSSYGMSWVRQAPGKGLEWVSAINSYGGSTSYADSVKGRFTISRDNAKNTLYLQMNSLKPEDTAVYYCAKEVRADLSRYNDYESYDYWGQGTQVTVSS
# VL: QPVLNQPSALSVTLGQTAKITCQGGSLGARYAHWYQQKPGQAPVLVIYDDDSRPSGIPERFSGSSSGGTATLTISGAQAEDEGDYYCQSADSSGSVFGGGTHLTVL
# notes: llama VH on human IgG1 CH1-CH2-CH3, llama VL on human lambda CL
# Key:
# [1] = target: T1, native mouse MET on living cells (mouse, UniProt P16056 25-1379); experiment: cell-based or functional assay
# [2] = target: T2, native human MET on living cells (human, UniProt P08581 25-1390); experiment: cell-based or functional assay
# T2 sequence (P08581 25-1390): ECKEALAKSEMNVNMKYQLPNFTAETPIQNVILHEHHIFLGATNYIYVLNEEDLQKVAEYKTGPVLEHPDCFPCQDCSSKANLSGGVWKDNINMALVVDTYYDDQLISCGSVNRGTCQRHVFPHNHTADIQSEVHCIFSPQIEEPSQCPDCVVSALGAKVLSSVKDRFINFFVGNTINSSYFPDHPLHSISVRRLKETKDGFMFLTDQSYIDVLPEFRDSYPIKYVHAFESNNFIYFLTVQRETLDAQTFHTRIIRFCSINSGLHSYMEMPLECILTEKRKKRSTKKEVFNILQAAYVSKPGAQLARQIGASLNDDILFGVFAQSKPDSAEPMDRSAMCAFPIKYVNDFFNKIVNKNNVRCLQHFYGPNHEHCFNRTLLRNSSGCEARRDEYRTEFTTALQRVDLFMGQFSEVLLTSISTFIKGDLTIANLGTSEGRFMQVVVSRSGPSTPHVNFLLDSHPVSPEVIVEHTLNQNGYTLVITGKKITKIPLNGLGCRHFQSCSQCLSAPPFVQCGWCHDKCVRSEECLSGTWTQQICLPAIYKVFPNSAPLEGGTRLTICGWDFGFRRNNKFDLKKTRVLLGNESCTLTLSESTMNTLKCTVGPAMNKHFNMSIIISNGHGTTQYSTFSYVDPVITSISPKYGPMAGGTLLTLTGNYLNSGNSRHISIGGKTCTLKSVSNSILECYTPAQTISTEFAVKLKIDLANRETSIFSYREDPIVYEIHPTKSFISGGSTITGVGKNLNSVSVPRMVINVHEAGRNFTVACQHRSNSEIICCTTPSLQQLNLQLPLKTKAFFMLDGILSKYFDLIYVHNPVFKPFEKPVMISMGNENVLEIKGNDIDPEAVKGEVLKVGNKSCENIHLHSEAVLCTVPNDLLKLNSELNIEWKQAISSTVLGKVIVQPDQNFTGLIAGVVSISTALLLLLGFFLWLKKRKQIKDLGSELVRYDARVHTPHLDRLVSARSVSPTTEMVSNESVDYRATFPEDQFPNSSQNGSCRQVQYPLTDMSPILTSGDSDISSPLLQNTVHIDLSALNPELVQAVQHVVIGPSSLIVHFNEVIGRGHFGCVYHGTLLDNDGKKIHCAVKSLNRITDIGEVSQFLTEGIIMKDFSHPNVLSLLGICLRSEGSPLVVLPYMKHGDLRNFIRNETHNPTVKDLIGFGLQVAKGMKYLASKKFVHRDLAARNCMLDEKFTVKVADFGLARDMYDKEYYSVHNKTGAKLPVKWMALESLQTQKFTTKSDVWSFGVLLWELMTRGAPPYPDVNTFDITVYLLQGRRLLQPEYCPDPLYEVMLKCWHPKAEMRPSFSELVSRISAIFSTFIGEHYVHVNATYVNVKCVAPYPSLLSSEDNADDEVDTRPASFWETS
# [3] = target: T1, native mouse MET on living cells; experiment: cell-based or functional assay; remark: listed apart in the source
# [4] = target: T2, native human MET on living cells; experiment: cell-based or functional assay; remark: listed apart in the source
# [5] = target: T1, native mouse MET on living cells; experiment: cell-based or functional assay; remark: listed apart in the source
# [6] = target: T2, native human MET on living cells; experiment: cell-based or functional assay; remark: listed apart in the source
# [7] = target: T1, native mouse MET on living cells; experiment: cell-based or functional assay; remark: listed apart in the source
# [8] = target: T2, native human MET on living cells; experiment: cell-based or functional assay; remark: listed apart in the source
# [9] = target: human MET ECD mutant E (mutations 2, 3, 4) (human) (UniProt P08581); experiment: ELISA, MET ECD in solid phase, mAb 0-50 nM
# [10] = target: human MET ECD mutant H (mutations 2, 4) (human) (UniProt P08581); experiment: ELISA, MET ECD in solid phase, mAb 0-50 nM
# [11] = target: human MET ECD mutant A (mutations 1, 2, 3) (human) (UniProt P08581); experiment: ELISA, MET ECD in solid phase, mAb 0-50 nM
# [12] = target: human MET ECD mutant D (mutations 1, 2) (human) (UniProt P08581); experiment: ELISA, MET ECD in solid phase, mAb 0-50 nM
# [13] = target: T3, mouse MET-Fc (R&D Systems) (mouse, UniProt P16056 25-929, limits assumed); experiment: competition ELISA, mMET-Fc in solid phase, competitor 0.3 nM biotinylated mHGF
# T3 construct: bought chimeric protein; also called mMET; not shown: Fc part
# Description: (§1) To investigate along this line, we tested the competition between mAbs and HGF by ELISA. Recombinant human and mouse HGF (R&D Systems) were biotinylated at the N-terminus using NHS-LC-biotin (Thermo Scientific). MET-Fc protein, either human or mouse (R&D Systems), was immobilized in solid phase and then exposed to 0.3 nM biotinylated HGF, either human or mouse, in the presence of increasing concentrations of antibodies (0-120 nM).
# (§2) A MET-Fc chimeric protein (either human or mouse) was immobilized in solid phase and exposed to a fixed concentration of biotinylated HGF (either human or mouse), in the presence of increasing concentrations of antibodies. […] Antibody-HGF competition is expressed as IC₅₀ (the concentration that achieves 50% competition) and IMAX (the maximum % competition reached at saturation).
# [14] = target: T4, human MET ECD (human, UniProt P08581 25-932); experiment: ELISA, MET ECD in solid phase, mAb 0-20 nM
# T4 construct: range 1-932; recombinant ECD made by the applicants; the stated range begins at residue 1, so it includes the signal peptide of the entry; also called hMET; hMET ECD
# T4 sequence (P08581 25-932 limits assumed, form in doubt): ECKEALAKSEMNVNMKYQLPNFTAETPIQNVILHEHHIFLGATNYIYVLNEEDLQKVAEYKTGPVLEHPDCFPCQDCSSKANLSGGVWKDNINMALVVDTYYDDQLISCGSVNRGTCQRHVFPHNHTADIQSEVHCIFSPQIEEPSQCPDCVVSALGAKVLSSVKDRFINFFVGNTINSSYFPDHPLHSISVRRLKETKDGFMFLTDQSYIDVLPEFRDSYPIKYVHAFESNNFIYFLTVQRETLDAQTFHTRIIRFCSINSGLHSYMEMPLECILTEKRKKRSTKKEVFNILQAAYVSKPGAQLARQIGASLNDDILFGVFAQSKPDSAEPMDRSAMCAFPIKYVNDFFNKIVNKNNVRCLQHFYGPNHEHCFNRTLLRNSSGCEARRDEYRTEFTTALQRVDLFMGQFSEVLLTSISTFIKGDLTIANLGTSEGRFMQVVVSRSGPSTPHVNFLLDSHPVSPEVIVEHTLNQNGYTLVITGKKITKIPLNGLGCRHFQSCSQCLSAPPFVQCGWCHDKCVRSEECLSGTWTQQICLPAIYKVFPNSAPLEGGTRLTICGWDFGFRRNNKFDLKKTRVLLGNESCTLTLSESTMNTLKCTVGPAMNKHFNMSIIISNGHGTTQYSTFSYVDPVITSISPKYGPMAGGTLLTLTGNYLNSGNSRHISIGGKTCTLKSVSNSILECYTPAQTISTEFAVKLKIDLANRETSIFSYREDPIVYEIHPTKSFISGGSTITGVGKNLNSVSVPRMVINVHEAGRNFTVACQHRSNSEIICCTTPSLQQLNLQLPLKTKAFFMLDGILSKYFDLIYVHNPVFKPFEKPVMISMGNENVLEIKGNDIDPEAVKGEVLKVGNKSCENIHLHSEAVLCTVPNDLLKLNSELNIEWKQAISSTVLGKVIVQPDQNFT
# Description: (§3) Production (by transient transfection of mammalian cells) and purification (by protein A affinity chromatography) of the resulting chimeric llama-human IgG1 molecules was outsourced to U-protein Express. Binding of chimeric mAbs to MET was determined by ELISA using hMET or mMET ECD in solid phase and increasing concentrations of antibodies (0-20 nM) in solution. […] Binding capacity (EMAX) varied from antibody to antibody, possibly due to partial epitope exposure in the immobilized antigen, but was similar in the human and mouse setting.
# [15] = target: T5, mouse MET ECD (mouse, UniProt P16056 25-931); experiment: ELISA, MET ECD in solid phase, mAb 0-20 nM
# T5 construct: range 1-931; recombinant ECD made by the applicants; the stated range begins at residue 1; also called mMET; mMET ECD
# Description: as §3
# [16] = target: T1, native mouse MET on living cells; experiment: flow cytometry, MLP29 cells
# Description: (§4) We also analysed whether chimeric anti-MET antibodies bound to native human and mouse MET in living cells. […] Antibody binding to cells was analysed by flow cytometry using phycoerythrin-conjugated anti-human IgG1 antibodies (eBioscience) and a CyAn ADP analyser (Beckman Coulter). As a positive control for human MET binding, we used a commercial mouse anti-human MET antibody (R&D Systems) and phycoerythrin-conjugated anti-mouse IgG1 antibodies (eBioscience).
# (§5) As a positive control for mouse MET binding we used a commercial goat anti-mouse MET antibody (R&D Systems) and phycoerythrin-conjugated anti-goat IgG1 antibodies (eBioscience). […] Consistent with the data obtained in ELISA, maximal binding (EMAX) varied depending on antibody, but was similar in human and mouse cells.
# [17] = target: T4, human MET ECD; experiment: ELISA, MET ECD in solid phase, mAb 0-50 nM
# Description: Using human MET as a template, we mutagenized each of these residues in different permutations, generating a series of MET mutants that are fully human except for specific residues, which are llama. Next, we tested the affinity of selected SEMA-binding mAbs (71D6, 71C3, 71D4, 71A3, 71G2) and PSI-binding mAbs (76H10 and 71G3) for these MET mutants by ELISA. To this end, the various MET proteins were immobilized in solid phase (100 ng/well in a 96-well plate) and then exposed to increasing concentrations of antibodies (0-50 nM) solution. […] Wild-type human MET was used as positive control.
# TABLE 18 The epitopes of MET responsible for agonistic antibody binding represent residues conserved among H. sapiens, M. musculus, R. norvegicus, M. fascicularis but not among the same species and L. glama. The relevance of residues conserved among human, mouse, rat, cynomolgus monkey but not llama MET for binding to agonistic mAbs was tested by ELISA. Wild-type (WT) or mutant (MT) human MET ECD was immobilized in solid phase and exposed to increasing concentrations of mAbs in solution. […] All binding values were normalized to the WT protein and are expressed as % binding (EMAX) compared to WT MET.
# [18] = target: T2, native human MET on living cells; experiment: flow cytometry, A549 cells
# Description: as §4, §5
# [19] = target: T6, human MET-Fc (R&D Systems) (human, UniProt P08581 25-932); experiment: competition ELISA, hMET-Fc in solid phase, competitor 0.3 nM biotinylated hHGF
# T6 construct: extracellular domain; bought chimeric protein; also called hMET; not shown: Fc portion of human IgG1
# T6 sequence (P08581 25-932): as the sequence (P08581 25-932 limits assumed, form in doubt) above
# Description: as §1, §2
binder,measurement,setting,value
B1,"branches per spheroid, MLP29 cells, 0.5 nM",[1],32.7 branches
same,"branches per spheroid, MLP29 cells, 2.5 nM",[1],39 branches
same,"branches per spheroid, MLP29 cells, 12.5 nM",[1],41.3 branches
same,"branches per spheroid, LOC cells, 0.5 nM",[2],29 branches
same,"branches per spheroid, LOC cells, 2.5 nM",[2],29 branches
same,"branches per spheroid, LOC cells, 12.5 nM",[2],32.7 branches
same,"phospho-MET ELISA EC50, MLP29 cells",[3],0.21 nM
same,"phospho-MET ELISA EMAX (% HGF activity), MLP29 cells",[3],115%
same,"phospho-MET ELISA EC50, A549 cells",[4],0.32 nM
same,"phospho-MET ELISA EMAX (% HGF activity), A549 cells",[4],102%
same,"scatter score 0-4, MLP29, 0.001 nM",[5],0 score
same,"scatter score 0-4, MLP29, 0.004 nM",[5],1 score
same,"scatter score 0-4, MLP29, 0.012 nM",[5],2 score
same,"scatter score 0-4, MLP29, 0.037 nM",[5],3 score
same,"scatter score 0-4, MLP29, 0.111 nM",[5],4 score
same,"scatter score 0-4, MLP29, 0.333 nM",[5],4 score
same,"scatter score 0-4, MLP29, 1.000 nM",[5],4 score
same,"scatter score 0-4, MLP29, 3.000 nM",[5],4 score
same,"scatter score 0-4, MLP29, 9.000 nM",[5],4 score
same,"scatter score 0-4, HPAF-II, 0.001 nM",[6],0 score
same,"scatter score 0-4, HPAF-II, 0.004 nM",[6],1 score
same,"scatter score 0-4, HPAF-II, 0.012 nM",[6],2 score
same,"scatter score 0-4, HPAF-II, 0.037 nM",[6],3 score
same,"scatter score 0-4, HPAF-II, 0.111 nM",[6],4 score
same,"scatter score 0-4, HPAF-II, 0.333 nM",[6],4 score
same,"scatter score 0-4, HPAF-II, 1.000 nM",[6],4 score
same,"scatter score 0-4, HPAF-II, 3.000 nM",[6],4 score
same,"scatter score 0-4, HPAF-II, 9.000 nM",[6],4 score
same,"protection from staurosporine, viability EC50, MLP29 cells",[7],0.95 nM
same,"protection from staurosporine, viability EMAX, MLP29 cells",[7],68.3%
same,"protection from staurosporine, viability EC50, MCF10A cells",[8],1.48 nM
same,"protection from staurosporine, viability EMAX, MCF10A cells",[8],66.8%
same,% binding (EMAX) compared to WT MET,[9],43.6 % WT MET ECD
same,% binding (EMAX) compared to WT MET,[10],38.6 % WT MET ECD
same,% binding (EMAX) compared to WT MET,[11],103 % WT MET ECD
same,% binding (EMAX) compared to WT MET,[12],128 % WT MET ECD
same,IC50,[13],0.34 nM
same,IMAX,[13],90.5%
same,EC50,[14],0.026 nM
same,EMAX (OD450),[14],2.08 AU
same,EC50,[15],0.049 nM
same,EMAX (OD450),[15],2.01 AU
same,EC50,[16],0.383 nM
same,EMAX,[16],121 % relative to control
same,% binding (EMAX) compared to WT MET,[17],100 % WT MET ECD
same,EC50,[18],0.259 nM
same,EMAX,[18],113 % relative to control
same,IC50,[19],0.29 nM
same,IMAX,[19],98.3%
